Series [1] concerns CLP-induced sepsis in BALB/c mice. Briefly: Septic survival after cecal ligation and puncture (CLP). The series is classed as in vivo, mouse. The following applies: P2 5.0 mg/kg twice at 2 h and 24 h post-CLP, i.p. Here is the method: Experimental sepsis was induced in BALB/c mice via CLP as previously described. […] The animals were randomly assigned to the control vehicle (n = 10 or n = 20) or experimental groups (n = 10 or n = 20). P2 (5.0 mg/kg), P2-1 (0.1 mg/kg or 1.0 mg/kg), or tetranectin N-terminal deletion mutant (ΔTN) (1.0 mg/kg) were administered intraperitoneally (i.p.) at the indicated time points, and survival rates were monitored. To elucidate P2-1’s protective mechanisms, a separate group of BALB/c mice (n = 4) underwent CLP and received P2-1 (1.0 mg/kg) at 2 h and 20 h post-CLP. At 24 h post-CLP, the animals were euthanized, blood was collected, and serum cytokines and chemokines were measured via murine cytokine antibody arrays as previously described. More details are presented in Additional file 1: Methods.
For these preclinical studies, animals were random ly assigned to experimental groups and treated with P2, P2-1, or a pCTS-L-neutralizing mAb2 according to the indicated dosing regimens. Outcomes, including septic survival rates, arthritis severity, pain sensitivity, and joint tissue histology scores, were collected under blinded experiment al conditions. The study d esign and sample si zes fo r each exp eriment are d etailed in the figure legends. No data, including outlier values, were excluded. For skewed data, outliers were defined via the interquartile range (IQR) method as any value below Q 1 –(1.5 × IQR) or above Q 3 + (1.5 × IQR). For normally distributed data, outliers were defined via the Z-score method as any value with an absolute Z-score greater than 2 or 3. The primary data are reported in Additional file 4. All the reagent sources are listed in Additional file 1: Table S1 .
Cecal ligation and puncture (CLP) sepsis model […]
screening. c Expression and purification of recombinant full-length human TN (residues 1 – 181) and its N-terminal deletion mutant ( ΔTN, residues 45 – 181). […] Recombinant Δ TN was given intraperitoneally at 24 h and 48 h post-C L P, and animal survival rates were monitored. *P < 0.0 5. […]

The nature of series [2]: Water solubility. Type of series: physicochemical. The following applies: qualitative, text in Fig. 1d.
In series [3] the target is T1, Recombinant human high mobility group box 1 (HMGB1) (human, UniProt P09429 1-215).
T1 construct: high mobility group box 1 (HMGB1); the SPR methods say recombinant human HMGB1; the SPR paragraph says human; The protein on the chip may be that rat construct
T1 sequence (looked up): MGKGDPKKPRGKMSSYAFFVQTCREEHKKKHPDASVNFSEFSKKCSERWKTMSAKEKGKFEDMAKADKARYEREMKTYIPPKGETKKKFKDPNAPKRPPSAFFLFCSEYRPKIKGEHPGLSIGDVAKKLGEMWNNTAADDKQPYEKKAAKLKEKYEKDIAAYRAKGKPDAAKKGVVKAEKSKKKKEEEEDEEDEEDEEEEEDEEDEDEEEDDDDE
Put plainly: SPR; Nicoya OpenSPR; recombinant human HMGB1 immobilized on a carboxyl sensor chip, P2-1 flowed over at various concentrations in HBS-P buffer; 1:1 interaction model; three independent experiments. The following applies: both partners purified.

In series [4] the test system is human PBMCs. Briefly: RNA-seq of HMGB1-stimulated PBMCs. The series is classed as cell-based. Here is the method: Total RNA was isolated from human PBMCs (n = 6 biological replicates) stimulated with HMGB1 in the absence or presence of P2-1 (5.0 or 10.0 µg/ml) via the RNeasy Mini Kit (Qiagen, Germantown, MD, USA) according to the manufacturer’s instructions. cDNA libraries were prepared using the TruSeq RNA Library Prep Kit v2 (Illumina, San Diego, CA, USA) and sequenced on an Illumina NovaSeq 6000 platform to generate 100 bp paired-end reads. Gene counts were quantified via StringTie and DESeq2 for differential gene expression analysis. Volcano plots and heatmaps were generated via ggplot2 and pheatmap packages in R, respectively. Genes with an adjusted P-value < 0.05 and a |log2 fold change|> 1 were considered differentially expressed. […]
custom-synthesized (Gen Script, Piscataway, NJ, USA). P2 -1 was engineered to: i) increase solubility by removing a w ater-insoluble phenylalanine (F) at the C-terminal residue 70 and introducing a water-soluble threonine (T) at N-t erminal residue 54; and ii) reduce oxidative susceptibility by substituting methionine (M) with norleucine (Nle) and cysteine (C) with serine (S), respectively. The pCTS -L-neutralizing mAbs (mAb2) and TN-neutrali zing mAbs (mAb8 and m Ab9) were generated in BALB/c and C57BL/6 m ice as previously described .
RNA sequencing (RNA- Seq) and bioinformatics analysis
Total RNA was isolated from human PBMCs (n= 6 biological replicates) stimulated with HMGB1 in the absence o r pres ence o f P2-1 (5.0 or 10.0 µg/ml) via the RNeasy Mini Kit (Qiagen, Germantown, MD, USA) according to the manufacturer ’s instructions. RNA quantity and quality were assessed via a NanoDrop spectrophotometer, which requires A260/280 and A260/230 ratios to both be > 1.8. Samples meeting these criteria were then sent to two sequencing facilities, where RNA integrity was further confirmed via an Agilent Bioanalyzer. Only samples with an RNA integrity number of 8 or above were accepted for RNA sequencing. cDNA libraries were prepared using the TruSeq RNA Library Prep Kit v2 (Illumina, San Diego, CA, USA) and sequenced on an Illumina NovaSeq 6000 platform to generat e 100 bp paired-end reads. Our data filtering criteria adhered to industry best practices to ensure data quality.
First, raw sequencing reads underwent quality assessment with FastQC, followed by adapter and low-quality nucleotide trimming using Trimmomatic v.0.36. Subsequently, the high- quality reads wer e aligned to the Homo sapiens GRCh38 reference genome using the STAR aligner v.2.5.2b. Following alignment, PCR duplicates were identified and removed with Picard tools to mitigate amplification bias. Before differential expression an alysis, the gene count matrix was filtered to retain only genes with a count-per-million (CPM) > 1 in at least three samples (n = 3, representing our smallest experimental group). This rigorous procedure ensured that analysis was perfo rmed on a robust set of reliably expressed gen es. Finally, gene counts were quantified via StringTie and DESeq2 for differential gene expression analysis. Volcano

Series [5] deals with synthetic TN peptides (P1 – P10). Briefly: Epitope mapping of mAb8 and mAb9 by dot blotting against TN peptides P1 – P10. The series is classed as binding, human. The following applies: 10 synthesized TN peptides, mAb 1.0 µg/ml, chemiluminescence. Here is the method: remove unbound protein and then fixed with 4% paraformaldehyde for 20 min at room temperature.
Coverslips were mounted onto slides via Vectashield Mounting Medium for fluorescen ce with DAPI (Cat.
#H-1200, Vector Laborat ories, Inc., Newark, CA, USA) for nuclear counterstaining. Endocytic uptake of Alexa Fluor 555- labeled HMGB1 (red) was visualized via the Olympus IX51 inverted fluorescence & phase contrast tissue culture microscope. Cellular HMGB1 uptake was quantified by measuring the mean fluorescen ce intensity of the Alex a- 555- labeled HMGB1 protein within multiple representative cells via ImageJ an alysis software.
Antibody sequencing and antigen contact structure (ACS) prediction
Total RNA was extracted from mAb8 and mAb9 hybridoma cells via TRIzol (Invitrogen, Austin, TX, USA), and cDNA was synthesized via reverse transcriptase. […]
Corresponding to the C-terminal portion of the TN protein (Additional file 1: Fig. S4a) , a library of 10 synthetic peptides (P1 – P10, Additional file 1: Fig. S4b ) was spotted (0.1 μ g in 2.5 μ l) onto nitrocellulose membranes (Cat No. 88013, Thermo Scientific, Waltham, MA, USA ). […] After washing, the membranes were incubated with HRP-conjugated goat anti-mouse IgG (Jackson ImmunoResearch, West Grove, PA, USA), and signals were detected via chemiluminescence as previously described [ 1].

The test system of series [6] is CLP-induced sepsis in BALB/c mice. Particulars: text in Fig. 1b; mAb8 22% to 77%, mAb9 80% to 50%; ref [21]; cited from earlier work.

We go through 4 molecules from publication PMC12914960, “Repurposing a detrimental antibody epitope as targeted therapeutics for sepsis and rheumatoid arthritis” (Military Medical Research, 2026).

Where no end group is shown, it is not given here. [ ]: non-standard residue; d: D form. Nle = CCCC[C@H](N)C(=O)O

KVHMKCFLAFQTKTF [P2]: the “septic survival, in words” value in series [1] was “significantly increased survival rates in both male and female mice”. In addition, the Water solubility result in series [2] is on record as “Poor water solubility”.

B1: P2-1 peptide, water-soluble derivative of the tetranectin P2 epitope peptide (peptide)
chain: TKVH[Nle]KSFLAFQTKT
B1: in series [3], the Kd was found to be 16.9 nM.

B2: HMGB1: recombinant HMGB1 protein used as stimulus (protein)
chain: T1 sequence (looked up)
Regarding B2, the “Log2 Fold change” value is given as 9.951 in series [4] (CXCL5 (ENA-78), P-adjust 3.97E-166); 5.985 in series [4] (CXCL8 (IL-8), P-adjust 1.17E-133); 8.223 in series [4] (IL1B (IL-1β), P-adjust 1.29E-157); 9.377 in series [4] (MT1G (Metallothionein-1G), P-adjust 9.98E-141). In addition, in series [4] (HMGB1-only group, human PBMCs), the “Ctsl mRNA upregulation” value is listed as 3.4 ± 0.3 -fold.

B3: mAb8: protective anti-tetranectin monoclonal antibody (antibody, V domains shown)
VH: DVNLVESGGGLVKLGGSLKLSCADSGFTFSSYYMSWVRQTPEKRLELVAAINSNGGRTYYPDTVKGRFTISRDNAKNTLYLQMSSLKSEDTALYYCARQGKNGLDYWGQGTSVTVSS
VL: DIQMTQTTSSLSASLGDRVTISCRASQDISNHLNWYQQKPDGTIKLLIYYTSRLHSGVPSRFSGSGSGTDFSLSISNLEQEDIATYFCQQGKTLPPTFGGGTKLEIK
B3: in series [5], the “epitope peptide recognised (dot blot)” value is given as “targeted P5”. Further, in series [6], the survival in sepsis was 77%.
